This note sets out measurements from patent publication US20250066490A1 (PROFOUNDBIO US, published 2025).

The target of test [1] is T1, human CD70 expressed on the cell surface of tumor cell lines (human, UniProt P32970 1-193).
T1 construct: whole, on cells
T1 sequence (looked up): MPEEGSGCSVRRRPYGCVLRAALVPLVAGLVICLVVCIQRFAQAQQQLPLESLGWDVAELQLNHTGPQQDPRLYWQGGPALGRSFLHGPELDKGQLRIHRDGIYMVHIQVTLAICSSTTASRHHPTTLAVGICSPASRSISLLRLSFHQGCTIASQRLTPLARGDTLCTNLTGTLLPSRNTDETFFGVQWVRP
As to the kind of experiment: flow cytometry on 786-O cells. The procedure: (§1) The lead antibodies were tested for binding to renal carcinoma cells and glioblastoma cells expressing CD70 on the cell surface by flow cytometry. […] U251 cells were cultured with MEM medium containing of 10% FBS and 1% NEAA+1 mM sodium pyruvate. DBTRG-05MG cells were cultured with DMEM medium (Gibco, Cat #C11995500BT) containing of 10% FBS. Each of the lead antibodies and the controls were incubated for 30 mins with the different cell lines (3×10⁵ cells per well) in 0.2 ml FACS buffer (1×PBS with 0.1% BSA) at 4° C. Then, the cells were pelleted, washed, and incubated at 4° C. for 30 mins with 100 μl of 1:200 diluted PE-conjugated anti human Fc (Abcam, Ab98596) in FACS buffer. The cells were pelleted again, washed with PBS, resuspended in FACS buffer and analyzed by flow cytometer (Beckman, CytoFLEX).
(§2) Antibodies 2H8 and 2D2 had slightly higher binding ability to the cell lines than that of antibody 69A7.

In test [2] the target is T2, human CD70 recombinant protein (human, UniProt P32970 39-193, limits assumed).
T2 construct: May be the same reagent as ACRO CDL-H5246; also called CD70 protein
T2 sequence (looked up): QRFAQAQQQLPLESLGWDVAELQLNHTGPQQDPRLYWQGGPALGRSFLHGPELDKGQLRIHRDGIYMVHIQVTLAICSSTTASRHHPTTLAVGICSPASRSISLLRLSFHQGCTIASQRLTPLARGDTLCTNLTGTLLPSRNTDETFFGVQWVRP
As to the kind of experiment: ELISA, IgG titrated on coated human CD70 recombinant protein (2 µg/ml), anti-human Fc-HRP, OD450. The procedure:
The binding specificity of the CD70 antibodies was tested by ELISA according to a standard protocol. Briefly, 96-well micro-plates were coated with 2 μg/ml of human or cynomolgus CD70 recombinant protein in PBS at 100 μl per well and incubated overnight at 4° C. The plates were washed twice with TBS+0.5% Tween20. 200 μL of blocking buffer (2% BSA in PBS) was added to each well, and the plates were incubated at 37° C. for 2 hours. The plates were washed using the wash buffer mentioned above. Serially diluted antibodies were added to the ELISA plates using 100 μl per well, and the plates were incubated for 1 hour at room temperature. Then plates were washed 3 times. HRP conjugated anti-human Fc antibody solution (Sigma, I18885-2ML, diluted with blocking buffer) was added to the plates using 100 μl per well. The plates were incubated at room temperature for 1 hour and then washed 3 times. Then the TMB solution was added to plates using 100 μl per well and the plates were placed at RT for 5-15 mins. Then the stop solution (2M H2SO4) was added using 50 μl per well. The absorbance was measured at A450 and A630.

Test [3] concerns the target T1, human CD70 expressed on the cell …. As to the kind of experiment: flow cytometry on Caki-1 cells. As to the method:
as §1, §2

Test [4] shares this target. As to the kind of experiment: flow cytometry on 786-O cells, PE anti-human Fc, MFI; same fit as Table 6, which prints it in nM. As to the method: as §1, §2

B1: 2E7, full IgG (antibody, V domains shown)
VH: QVQLQESGPGLVKPSETLSLTCTVSGGSVSSDYYYWSWIRQPPGKGLEWLGYIYYSGSTNYNPSLKSRVTISVDTSKNQFSLKLRSVTTADTAVYYCARGDGDFLGVCFDYWGQGTLVTVSS
VL: EIVLTQSPATLSLSPGERATLSCRASQSVSSYLAWYQQKPGQAPRLLIFDASNRATGIPARFSGSGSGTDFTLTISSLEPEDFAVYYCQQRSNWPLTFGGGTKVEIK
For the molecule B1, the EC50 in test [1] was determined as 2.69 nM; in test [2], 0.0161 µg/mL; in test [3], 2.81 nM; in test [4] it was 0.403 µg/mL.
